Here are results for one protein from publication PMC8317952.

Substrate in data set [1]: CCCCCCCCCCCCCCCC(=O)O
Nature of the data set: Steady-state NADPH oxidation. The class given is biochemical, Bacillus megaterium. Conditions: other: rates of NADPH oxidation, hyperbolic fit, 23 °C, pH 7.4.

Substrate in data set [2]: CCCCCCCCCCCCCCOS(=O)(=O)O
Briefly: Steady-state NADPH oxidation. Format: biochemical, Bacillus megaterium. Conditions: other: rates of NADPH oxidation, 23 °C, pH 7.4.

“And” between values parts separate entries of the source, which are not always exact repeats. Equal entries are not always repeated.

B1: P450BM-3 (Priestia megaterium NBRC 15308 = ATCC 14581) (protein)
chain: MTIKEMPQPKTFGELKNLPLLNTDKPVQALMKIADELGEIFKFEAPGRVTRYLSSQRLIKEACDESRFDKNLSQALKFVRDFAGDGLFTSWTHEKNWKKAHNILLPSFSQQAMKGYHAMMVDIAVQLVQKWERLNADEHIEVPEDMTRLTLDTIGLCGFNYRFNSFYRDQPHPFITSMVRALDEAMNKLQRANPDDPAYDENKRQFQEDIKVMNDLVDKIIADRKASGEQSDDLLTHMLNGKDPETGEPLDDENIRYQIITFLIAGHETTSGLLSFALYFLVKNPHVLQKAAEEAARVLVDPVPSYKQVKQLKYVGMVLNEALRLWPTAPAFSLYAKEDTVLGGEYPLEKGDELMVLIPQLHRDKTIWGDDVEEFRPERFENPSAIPQHAFKPFGNGQRACIGQQFALHEATLVLGMMLKHFDFEDHTNYELDIKETLTLKPEGFVVKAKSKKIPLGGIPSPSTEQSAKKVRKKAENAHNTPLLVLYGSNMGTAEGTARDLADIAMSKGFAPQVATLDSHAGNLPREGAVLIVTASYNGHPPDNAKQFVDWLDQASADEVKGVRYSVFGCGDKNWATTYQKVPAFIDETLAAKGAENIADRGEADASDDFEGTYEEWREHMWSDVAAYFNLDIENSEDNKSTLSLQFVDSAADMPLAKMHGAFSTNVVASKELQQPGSARSTRHLEIELPKEASYQEGDHLGVIPRNYEGIVNRVTARFGLDASQQIRLEAEEEKLAHLPLAKTVSVEELLQYVELQDPVTRTQLRAMAAKTVCPPHKVELEALLEKQAYKEQVLAKRLTMLELLEKYPACEMKFSEFIALLPSIRPRYYSISSSPRVDEKQASITVSVVSGEAWSGYGEYKGIASNYLAELQEGDTITCFISTPQSEFTLPKDPETPLIMVGPGTGVAPFRGFVQARKQLKEQGQSLGEAHLYFGCRSPHEDYLYQEELENAQSEGIITLHTAFSRMPNQPKTYVQHVMEQDGKKLIELLDQGAHFYICGDGSQMAPAVEATLMKSYADVHQVSEADARLWLQQLEEKGRYAKDVWAG
By Km is commonly meant the substrate concentration at which the rate is half of its maximum. For orientation: kcat/Km means the turnover number divided by the Michaelis constant. As a reminder, the kcat is the maximal rate divided by the concentration of active sites. In the case of B1, the Km in data set [1] turned out to be 67 ± 8 µM. Also, the kcat/Km in data set [2] is 7.7e+06 M⁻¹ s⁻¹ and 3e+06 M⁻¹ s⁻¹. Besides, in data set [2] (hyperbolic fit), the Km came to 4.2 ± 0.6 µM, the kcat was found to be 32.33 s⁻¹ and the catalytic efficiency (kcat/Km) amounted to 7.67e+06 ± 1e+06 M⁻¹ s⁻¹.
